This is an account of results in the RNAGym collection of RNA variant scans (doi:10.1093/nar/gkz1192).

The chains are these.
B1: CPEB3 Ribozyme (parent)
chain: UAACAGGGGGCCACAGCAGAAGCGUUCACGUCGCAGCCCCUGUCAGAUUCUGGUGAAUCUGCGAAUUCUGCUGUAUAUCUC

Variants of B1 are the subject of the data set. The experiment in a line: self-cleavage, relative activity (ratio to wild type); higher = more cleavage; in vitro, sequencing. The procedure, abridged:
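For each CPEB3 ribozyme variant, relative activity is its cleaved/total read fraction divided by the unmutated ribozyme's. Barcoded error-prone PCR libraries were transcribed by T7 RNA polymerase (5 hours, 37°C) and held in DNase I for 15 min before an EDTA stop, with cleavage occurring throughout. Template-switching reverse transcription and Illumina sequencing were used to read the RNAs. A 5-read minimum applied, and results are the mean of three batches.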
Regarding UAACAGGGGCCCACAGCAGAAGCGUUCACGUCGCAGCCCCUGUCAGAUUCUAGUGAAUCUGCGAAUUCUGCUGUAUAUCUC, the self-cleavage stood at 0.2.

Take UAACAGGGGCCCACAGCAGAAGCGUUCACGUCGCAGCCCCUGUCAGAUUCUGGUGAAUCUGCGAAUUCUGCUGUACAUCUC: the self-cleavage turned out to be 0.19. In the case of UAACAGGGGCCCACAGCAGAAGCGUUCACGUCGCAGCCCCUGUCAGAUUCUGGUGAAUCUGCGAACUCUGCUGUAUAUCUC, the self-cleavage came out at 0.15. On to UAACAGGGGCCCACAGCAGAAGCGUUCACGUCGCAGCCCCUGUCAGAUUCUGGUGAAUCUGCGAAAUCUGCUGUAUAUCUC, for which the self-cleavage is 0.2.

Regarding UAACAGGGGCCCACAGCAGAAGCGUUCACGUCGCAGCCCCUGUCAGAUUCUGGUGAAUCAGCGAAUUCUGCUGUAUAUCUC, the self-cleavage was found to be 0.12.

With UAACAGGGGCCCACAGCAGAAGCGUUCACGUCGCAGCCCCUGUCAGAUUCUGGUGAAUCUGCGAAUUCUGCUGUAUAUCCC, the self-cleavage was determined as 0.31.

In the case of UAACAGGGGCCCACAGCAGAAGCGUUCACGUCGCAGCCCCUGUCAGAUUCUGGUGAAUCUGCGAAUUCUGCUGUAUAACUC, the self-cleavage worked out at 0.09.

As to UAACAGGGGCCCACAGCAGAAGCGUUCACGUCGCAGCCCCUGUCAGAUUCUGGUGAAUCUGCGAAUUCUGCUGUAUACCUC, the self-cleavage stood at 0.17. With UAACAGGGGCCCACAGCAGAAGCGUUCACGUCGCAGCCCCUGUCAGAUUCUGGUGAAUCUGCGAAUUCGGCUGUAUAUCUC, the self-cleavage is 0.16. Consider UAACAGGGGCCCACAGCAGAAGCGUUCACGUCGCAGCCCCUGUCAGAUUCUGGUGAAUCUGCGAAUUCAGCUGUAUAUCUC, for which the self-cleavage stood at 0.3. Take UAACAGGGGCCCACAGCAGAAGCGUUCACGUCGCAGCCCCUGUCAGAUUCUGGUGAAUCUGCGAAUUCCGCUGUAUAUCUC: the self-cleavage turned out to be 0.12. For UAACAGGGGUCCACAGCAGAAGCGUUCGCGUCGCAGCCCCUGUCAGAUUCUGGUGAAUCUGCGAAUUCUGCUGUAUAUCUC the value was 0.17. UAACAGGGGCCCACAACAGAAGCGUUCACGUCGCAGCCCCUGUCAGAUUCUGGUGAAUCUGCGAAUUCUGCUGUAUAUCUC: the self-cleavage was 0.12. The figure for UAACAGGGGCCCACAGCAGAAGCGUUUACGUCGCAGCCCCUGUCAGAUUCUGGUGAAUCUGCGAAUUCUGCUGUAUAUCUC is 0.15; for UAACAGGGGCCUACAGCAGAAGCGUUCACGUCGCAGCCCCUGUCAGAUUCUGGUGAAUCUGCGAAUUCUGCUGUAUAUCUC it is 0.1; for UAACAGGGGCCAACAGCAGAAGCGUUCACGUCGCAGCCCCUGUCAGAUUCUGGUGAAUCUGCGAAUUCUGCUGUAUAUCUC it is 0.44. Consider UAACAGGGGCCCACAGCAGAGGCGUUCACGUCGCAGCCCCUGUCAGAUUCUGGUGAAUCUGCGAAUUCUGCUGUAUAUCUC, for which the self-cleavage is 0.18. With UAACAGGGGCCCACAGCAGAAGCGUUCACGUCGCAGCCCCUGUUAGAUUCUGGUGAAUCUGCGAAUUCUGCUGUAUAUCUC, the self-cleavage is 0.18. On to UAACAGGGGCCCACAGCAGAAGCGUUCACGUCGCAGCCCCUGUCAGAUCCUGGUGAAUCUGCGAAUUCUGCUGUAUAUCUC, for which the self-cleavage amounted to 0.22. The figure for UAACAGGGGCCCACAGCAGAAGCGUUCACGUCGCAGCCCCUGUCAGAUGCUGGUGAAUCUGCGAAUUCUGCUGUAUAUCUC is 0.17. Turning to UAACAGGGGCCCACAGCAGAAGCGUUCACGUCGCAGCCCCUGUCAGAUACUGGUGAAUCUGCGAAUUCUGCUGUAUAUCUC, the self-cleavage came out at 0.2. Consider UAACAGGGGCCCACAGCAGGAGCGUUCACGUCGCAGCCCCUGUCAGAUUCUGGUGAAUCUGCGAAUUCUGCUGUAUAUCUC, for which the self-cleavage was 0.19. With UAACAGGGGCCCACAGCAGUAGCGUUCACGUCGCAGCCCCUGUCAGAUUCUGGUGAAUCUGCGAAUUCUGCUGUAUAUCUC, the self-cleavage turned out to be 0.42.

For the variant UAACAGGGGCCCACAGCAGAAGCGUUCACGUCGCAGCCCCUGUCAGAUUCUGGUGAACCUGCGAAUUCUGCUGUAUAUCUC, the self-cleavage was determined as 0.19. With UAACAGGGGCCCACAGCAGAAGCGUUCACGUCGCAGCCCCUGUCAGACUCUGGUGAAUCUGCGAAUUCUGCUGUAUAUCUC, the self-cleavage was 0.22. Turning to UAACAGGGGCCCACAGCAGAAGCGUUCACGUCGCAGCCCCUGUCAGAUUCUGGUGGAUCUGCGAAUUCUGCUGUAUAUCUC, the self-cleavage was found to be 0.15. On to UAACAGGGGCCCACAGCAGAAGCGUUCACGUCGCAGCCCCUGUCAGAUUCUGGUGAAUCUGCGAAUUCUGCUGUGUAUCUC, for which the self-cleavage stood at 0.24. As to UAACAGGGGCCCACAGCAGAAGCGCUCACGUCGCAGCCCCUGUCAGAUUCUGGUGAAUCUGCGAAUUCUGCUGUAUAUCUC, the self-cleavage is 0.07. With UAACAGGGGUCCACAGCAGGAGCGUUCACGUCGCAGCCCCUGUCAGAUUCUGGUGAAUCUGCGAAUUCUGCUGUAUAUCUC, the self-cleavage was 0.36. Regarding UAACAGGGGCCCACAGCAGAAGCGUUCACGUCGCAGCCCCUGUCAGAUUCUGGAGAAUCUGCGAAUUCUGCUGUAUAUCUC, the self-cleavage is 0.26.

In the case of UAACAGGGGCCCACAGCAGAAGCGUUCACGUCGCAGCCCCUGUCAGAUUCUGGCGAAUCUGCGAAUUCUGCUGUAUAUCUC, the self-cleavage was found to be 0.39. Regarding UAACAGGGGCCCACAGCAGAAGCGUUCACGUCGCAGCCCCUGUCAGAUUCUGGUGAAUCUGCGAAUUCUGCAGUAUAUCUC, the self-cleavage worked out at 0.14.

For the variant UAACAGGGGUCCACAGCAGAAGCGUUCACGUCGCGGCCCCUGUCAGAUUCUGGUGAAUCUGCGAAUUCUGCUGUAUAUCUC, the self-cleavage stood at 0.32. As to UAACAGGGGCCCACAGCAGAAGCGUUCACGUCGCAGCCCCUGUCAGAUUCUGAUGAAUCUGCGAAUUCUGCUGUAUAUCUC, the self-cleavage worked out at 0.26.
